The values below come from patent publication US20210171640A1 (Janssen / Centocor, published 2021).

Assay [1] concerns the target T1, human VISTA expressed on cells (human, UniProt Q9H7M9 33-295).
T1 sequence: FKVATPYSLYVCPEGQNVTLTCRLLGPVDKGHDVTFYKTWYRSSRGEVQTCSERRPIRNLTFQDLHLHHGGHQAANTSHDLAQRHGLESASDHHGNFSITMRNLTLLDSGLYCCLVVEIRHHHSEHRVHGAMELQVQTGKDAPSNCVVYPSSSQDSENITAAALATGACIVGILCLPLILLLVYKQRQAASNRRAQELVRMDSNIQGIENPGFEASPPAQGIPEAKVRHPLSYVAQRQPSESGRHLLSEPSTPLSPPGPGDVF
The experiment in a line: cell-based or functional assay.

The target of assay [2] is T1, human VISTA expressed on cells. Kind of assay: cell-based or functional assay. This is another data set of the same source.
Assay [3] shares this target. Kind of assay: cell-based or functional assay. This is another data set of the same source.
Assay [4] has as its target T2, human VISTA extracellular domain (human, UniProt Q9H7M9 33-194).
T2 construct: also called SB0361 (human); human VISTA ECD
T2 sequence: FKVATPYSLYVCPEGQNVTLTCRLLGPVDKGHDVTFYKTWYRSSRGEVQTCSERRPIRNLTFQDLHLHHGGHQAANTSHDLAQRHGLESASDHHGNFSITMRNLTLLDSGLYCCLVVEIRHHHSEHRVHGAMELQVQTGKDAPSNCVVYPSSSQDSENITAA
The experiment in a line: ProteOn SPR. As to the method:
(§1) Antibodies were captured on ProteOn chips using anti-IgG Fc coated surfaces. […] The antigens were allowed to bind/associate to the antibody-coated chips for 4 minutes after which time dissociation was monitored for 30 minutes. Chips were regenerated with two treatments of 100 mM phosphoric acid for 18 seconds. All experiments were run at 25° C. and data was fit to 1:1 Langmuir binding model.

In assay [5] the target is T3, cynomolgus VISTA extracellular domain (cynomolgus, UniProt A0A7N9IB00 33-194).
T3 construct: extracellular domain; also called SB0361 (cyno); cyno VISTA ECD
T3 sequence: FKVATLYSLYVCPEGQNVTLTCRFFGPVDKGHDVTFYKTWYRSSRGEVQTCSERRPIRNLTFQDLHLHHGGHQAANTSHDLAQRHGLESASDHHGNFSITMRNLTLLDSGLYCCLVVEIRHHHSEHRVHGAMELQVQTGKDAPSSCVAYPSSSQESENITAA
Kind of assay: ProteOn SPR. As to the method:
as §1

By Kd is commonly meant the constant that tells how readily two partners part at equilibrium. Usually koff stands for the rate constant with which the complex falls apart. By kon is commonly meant the second-order rate constant of association.

B1: VSTB50 (antibody, human IgG1, kappa, V domains shown)
VH: QVQLVQSGSELKKPGASVKVSCKASGYTFTNYGLNWVRQAPGQGLEWMGWINPYTGEPTYADDFKGRFVFSLDTSVSTAYLQICSLKAEDTAVYYCAREGYGNYIFPYWGQGTLVTVSS
VL: DIVMTQTPLSLSVTPGQPASISCRASESVDTYANSLMHWYLQKPGQPPQLLIYRASNLESGVPDRFSGSGSGTDFTLKISRVEAEDVGVYYCQQTNEDPRTFGQGTKLEIKR
On to B1, for which the “IC50, IFN-γ in the MLR” value in assay [1] is 0.06 log10 of antibody concentration. For the same molecule, the “IC50, IFN-γ in the SEB assay” value in assay [2] was 1.69 log10 of antibody concentration. The “EC50 IFNγ production, MLR” value in assay [3] was found to be 1.14 µg/mL.

B2: VSTB60 (antibody, human IgG1, kappa, V domains shown)
VH: QVQLVQSGSELKKPGASVKVSCKASGYTFTNYGMTWVRQAPGQGLEWMGWINTYTGESTYADDFKGRFVFSLDTSVSTAYLQICSLKAEDTAVYYCARDYYGIYVSAYWGQGTLVTVSS
VL: DIVMTQTPLSLSVTPGQPASISCRASESVDNYANSFMHWYLQKPGQSPQLLIYRASNLESGVPDRFSGSGSGTDFTLKISRVEAEDVGVYYCQQSHEDPYTFGQGTKLEIKR
In the case of B2, the “IC50, IFN-γ in the MLR” value in assay [1] was 0.4 log10 of antibody concentration. The “EC50 IFNγ production, MLR” value in assay [3] amounted to 2.48 µg/mL.

B3: VSTB103 (antibody, V domains shown)
VH: EVQLVQSGAEVKKPGESLKISCKGSGYSFTSYWIGWVRQMPGKGLEWMGIIYPGDSDTRYSPSFQGQVTISADKSISTAYLQWSSLKASDTAMYYCARDDALYGGYYLDYWGQGTLVTVSS
VL: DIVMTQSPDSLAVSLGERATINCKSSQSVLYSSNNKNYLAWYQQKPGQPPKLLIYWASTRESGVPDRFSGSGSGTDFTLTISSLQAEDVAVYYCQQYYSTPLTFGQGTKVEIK
In assay [4], B3 registered a Kd of 0.636 nM, a koff of 0.000336 s⁻¹ and a kon of 528000 M⁻¹ s⁻¹. In assay [5], this molecule had a dissociation constant (Kd) of 0.302 nM, a koff of 0.00018 s⁻¹ and an on-rate (kon) of 598000 M⁻¹ s⁻¹.

B4: VSTB116 (antibody, human IgG1, kappa, V domains shown)
VH: QVQLVQSGAEVKKPGSSVKVSCKASGGTFSSYAISWVRQAPGQGLEWMGGIIPIFGTANYAQKFQGRVTITADESTSTAYMELSSLRSEDTAVYYCARSSYGWSYEFDYWGQGTLVTVSS
VL: DIQMTQSPSSLSASVGDRVTITCRASQSINTNLNWYQQKPGKAPKLLIYAASSLQSGVPSRFSGSGSGTDFTLTISSLQPEDFATYYCQQARDTPITFGQGTKVEIKR
On to B4, for which the “IC50, IFN-γ in the MLR” value in assay [1] is -0.16 log10 of antibody concentration. Further, in assay [2], the “IC50, IFN-γ in the SEB assay” value was -0.35 log10 of antibody concentration. For the same molecule, in assay [3], the “EC50 IFNγ production, MLR” value turned out to be 0.69 µg/mL.

B5: VSTB95 (antibody, human IgG1, kappa, V domains shown)
VH: EVQLVESGGGLVQPGGSLRLSCAASGFTFRNYGMSWVRQAPGKGLEWVASIISGGSYTYYPDSVKGRFTISRDNAKNSLYLQMNSLRAEDTAVYYCARIYDHDGDYYAMDYWGQGTTVTVSS
VL: DIVMTQSPLSLPVTPGEPASISCRSSQSIVHSNGNTYLEWYLQKPGQSPQLLIYKVSNRFSGVPDRFSGSGSGTDFTLKISRVEAEDVGVYYCFQGSHVPWTFGQGTKLEIKR
Take B5: in assay [1], the “IC50, IFN-γ in the MLR” value was 0.22 log10 of antibody concentration. Moreover, the “IC50, IFN-γ in the SEB assay” value in assay [2] is 0.05 log10 of antibody concentration. In addition, the “EC50 IFNγ production, MLR” value in assay [3] is 1.67 µg/mL.

B6: VSTB53 (antibody, human IgG1, kappa, V domains shown)
VH: QVQLVQSGAEVKKPGASVKVSCKASGYTFTHYTIHWVRQAPGQGLEWMGYIIPSSGYSEYNQKFKDRVTMTRDTSTSTVYMELSSLRSEDTAVYYCARGAYDDYYDYYAMDYWGQGTLVTVSS
VL: DIVMTQSPLSLPVTPGEPASISCRSSQTIVHSNGNTYLEWYLQKPGQSPQLLIYKVSNRFSGVPDRFSGSGSGTDFTLKISRVEAEDVGVYYCFQASHVPWTFGQGTKLEIKR
Consider B6, for which the “IC50, IFN-γ in the MLR” value in assay [1] is 0.27 log10 of antibody concentration. For the same molecule, the “IC50, IFN-γ in the SEB assay” value in assay [2] is -1.05 log10 of antibody concentration. The “EC50 IFNγ production, MLR” value in assay [3] was 1.88 µg/mL.

B7: VSTB74 (antibody, V domains shown)
VH: QMQLVQSGPEVKKPGTSVKVSCKASGYIFTDYNIDWVRQARGQRLEWIGDINPKYDSTRYNQKFKGRVTITRDMSTSTAYMELSSLRSEDTAVYYCAADGSSAMDYWGQGTTVTVSS
VL: DIVMTQSPDSLAVSLGERATINCKSSQSLLNSGHQKNYLAWYQQKPGQPPKLLIYGASTRESGVPDRFSGSGSGTDFTLTISSLQAEDVAVYYCQNDHRYPLTFGQGTKLEIKR
Turning to B7, in assay [4], the equilibrium dissociation constant (Kd) turned out to be 0.562 nM, the off-rate (koff) was 0.000223 s⁻¹ and the on-rate (kon) is 397000 M⁻¹ s⁻¹. Besides, in assay [5], the affinity, expressed as Kd, was 0.347 nM; the koff amounted to 0.000144 s⁻¹; the kon turned out to be 415000 M⁻¹ s⁻¹.
